In PMC12831531 (Cell reports, 2025):
Like-named read-outs stand apart in the source and are kept apart here.

Columns and labels:
[1] = biological target: biotinylated human FcRn (human) (UniProt P55899); assay: BLI; Octet RED96e; biotinylated FcRn on streptavidin biosensors; hu4D5 Fc variants 1000–31.2 nM; PBS pH 6.0, 0.02% Tween 20, room temperature; steady state
[2] = biological target: t-gp68 (truncated gp68 ectodomain, soluble) (HCMV AD169); assay: SPR; BIAcore X100; t-gp68-twin strep-FLAG captured (40 RU) on anti-strep Fab; hu4D5 IgG1 Fc variants injected; 2:1 binding kinetics (first constants only) and steady state analysis
[3] = biological target: vFcγR on AD169-infected MRC5 cells (Figure 1C); assay: flow cytometry on cells
[4] = biological target: hu4D5 human IgG1 antibody with Fc variant G5 (human); assay: BLI; Octet RED96e; hu4D5 IgG1 variants on CH1-binding (FAB2G) biosensors; CD16A F158 5000–156.25 nM, V158 2000–62.5 nM; room temperature, PBS pH 7.4, 0.02% Tween 20, 0.1% BSA; steady state
[5] = biological target: hu4D5 human IgG1 antibody with Fc variant G2 (human); assay: as above
[6] = biological target: hu4D5 human IgG1 antibody with wild-type Fc (human); assay: as above
[7] = biological target: human IgG1 Fc (wild type, without Fab arms) (human); assay: SPR; BIAcore X100; 200 RU human IgG1 Fc immobilised on CM5; t-gp68-strep-FLAG injected 250–3 nM; 1:1 binding kinetics
[8] = biological target: human IgG1 Fc (wild type, without Fab arms) (human); assay: as above; remark: listed apart in the source
[9] = biological target: human IgG1 Fc (wild type, without Fab arms) (human); assay: negative-stain electron microscopy; purified Fc, gp34-M and t-gp68 combined in various ratios, complexes purified by SEC; 2 mM Tris pH 8.0, 200 mM NaCl; uranyl acetate
[10] = biological target: HCMV glycoprotein B (gB) on the surface of infected fibroblasts (Human cytomegalovirus AD169, UniProt P06473, strain); assay: flow cytometry on cells; antibody on AD169-, Δ3- or mock-infected MRC5 fibroblasts, on ice; extracellular antibody detected with goat anti-human Fcγ AF647 (anti-mouse Fcγ for SM5–1-mFc); conditions: one partner purified

biotinylated human FcRn (human), sequence (P55899 24-297, chain 1 of 2): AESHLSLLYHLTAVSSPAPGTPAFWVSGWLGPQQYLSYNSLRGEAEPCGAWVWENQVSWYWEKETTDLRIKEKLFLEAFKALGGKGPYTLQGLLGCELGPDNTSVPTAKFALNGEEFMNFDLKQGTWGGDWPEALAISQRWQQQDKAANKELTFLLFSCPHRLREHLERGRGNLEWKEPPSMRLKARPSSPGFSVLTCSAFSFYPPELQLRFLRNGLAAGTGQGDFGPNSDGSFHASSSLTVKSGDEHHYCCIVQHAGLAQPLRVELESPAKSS
biotinylated human FcRn (human), sequence (P61769 21-119, chain 2 of 2, further chain): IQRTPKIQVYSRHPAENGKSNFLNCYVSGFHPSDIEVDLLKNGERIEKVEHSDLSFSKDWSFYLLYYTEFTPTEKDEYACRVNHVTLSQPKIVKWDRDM

hu4D5 human IgG1 antibody with wild-type Fc
Kd [1]: 50 nM
Kd [2]: 80 nM
ka1 (first step of a 2:1 fit) [2]: 65000 M⁻¹ s⁻¹
kd1 (first step of a 2:1 fit) [2]: 0.004 s⁻¹
kinetic KD from ka1 and kd1 of a 2:1 fit [2]: 69 nM

isotype control 2B1 human IgG1 antibody
percent of cells positive for extracellular antibody [3]: 30 % cells

human CD16A F158 (from UniProt P08637 17-208) (receptor)
Kd [4]: 990 nM
Kd [5]: 360 nM
Kd [6]: 1160 nM

t-gp68 (truncated gp68 ectodomain, soluble) (domain or fragment)
koff [7]: 0.004 s⁻¹
Kd [8]: 110 nM
koff [8]: 0.005 s⁻¹
kon [8]: 40000 M⁻¹ s⁻¹
stoichiometry N [9]: 2

B1: SM5–1 human IgG1 antibody with wild-type Fc (antibody, V domains shown)
VH: QVQLVQSGAEVRKPGASVKVSCKASGYSLKDHYMVWVRQAPGQGLEWMGWINPQSGGTGYGQKFQGRVTMTRDTSTNTAYMILSSLRSDDTAVYFCARDGAKTVSNSGLSLLYYHNRLDAWGQGTMVTVSS
VL: QSVLTQPPSVSAAPGQMVTISCSGSSSNIGKNYVSWYQQLPGAAPKLLIFDNNKRPSGTPDRFSGSKSGTSATLVITGLQTGDEADYYCGTPDRSLSVIFGGGTKVTVL
notes: also called SM5–1 WT; human SM5–1; source: ExpiCHO, purified (Protein A)
percent of cells positive for extracellular antibody [10]: ~70%

B2: SM5–1 human IgG1 antibody with Fc variant G5 (antibody, V domains shown)
VH: B1 VH
VL: B1 VL
notes: IgG1; also called SM5–1 with G5; source: ExpiCHO, purified (Protein A)
percent of cells positive for extracellular antibody [10]: ~70%

B3: SM5–1 human IgG1 antibody with Fc variant G2 (antibody, V domains shown)
VH: B1 VH
VL: B1 VL
notes: IgG1; also called SM5–1 with G2; source: ExpiCHO, purified (Protein A)
percent of cells positive for extracellular antibody [10]: ~70%
